Assay results as given in the supplement of paper PMC10126150.
± gives the standard deviation of the averaged measurements.

Tested on: ATP
Experiment: switch fluorescence ratio, 500 uM ATP over buffer (Cy3 cluster intensity, sum of 5 cycles each) (fold (ratio)); higher = stronger signal-on switching upon ATP binding; sequences stand for … in TCGTCGGCAGCGTCAGATGTGTATAAGAGACAGTTTTTTTTTTTTTTTTTTTTTTTTT…TC
Conditions: aptamer strand: ATP DNA aptamer (quencher-CACCTGGGGGAGTATTGCGGAGGAAGG + anchor), 100 nM annealed; ATP concentration: 500 uM
Method in brief: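 For every switch-domain sequence, the fluorescence ratio is the mean of per-cluster values, each being summed target-cycle Cy3 intensity over summed buffer-cycle Cy3 intensity. Clusters outside 100-1000 RFU were excluded. On a modified Illumina MiSeq flow-cell, the Cy3-labelled switching-strand clusters were annealed to 100 nM quencher-labelled ATP aptamer, imaged in selection buffer and then after 15 min with 500 uM ATP at 22 °C. Five such cycles were run, with NaOH stripping and re-annealing between them.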
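Note: ATP exposure 15 min at 22 °C before imaging.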

Sequence | switch fluorescence ratio
CAGTAATAGG | 1.07 ± 0.0075
CAGTAATGCG | 0.99757 ± 0.00094
CAGTACCGGA | 0.9935 ± 0.0044
CAGTAGAGGT | 0.9766 ± 0.0042
CAGTAGGCCA | 1.01 ± 0.032
CAGTAGGTGG | 1 ± 0.028
CAGTAGTCGA | 1.03 ± 0.014
CAGTATTCGG | 1 ± 0.015
CAGTCAAGGG | 1.01 ± 0.013
CAGTCACTTG | 1.01 ± 0.029
CAGTCCCCTT | 1.33 ± 0.44
CAGTCGGGCT | 0.974 ± 0.02
CAGTCGGGTT | 1.03 ± 0.079
CAGTCTTATT | 0.9712 ± 0.0087
CAGTCTTTTA | 0.957 ± 0.035
CAGTGACAGT | 1.028 ± 0.0014
CAGTGACGGT | 1.03 ± 0.021
CAGTGATACG | 1.16 ± 0.036
CAGTGCGCCT | 0.996 ± 0.036
CAGTGCGGAG | 0.999 ± 0.016
CAGTGCGGCA | 1.038 ± 0.0027
CAGTGGAGCC | 1.01 ± 0.034
CAGTGGGGGG | 1.01 ± 0.039

Sequence | switch fluorescence ratio
CAGTGGGGTG | 0.993 ± 0.03
CAGTGTAGTC | 1.02 ± 0.057
CAGTGTATTT | 1.01 ± 0.038
CAGTGTGTAT | 0.989 ± 0.013
CAGTGTTATG | 0.97 ± 0.014
CAGTGTTGGC | 1 ± 0.016
CAGTTCGGAA | 1.07 ± 0.027
CAGTTGCGCA | 0.996 ± 0.034
CAGTTGGGTA | 0.98 ± 0.028
CAGTTTAGTT | 0.987 ± 0.072
CAGTTTCGGG | 1.004 ± 0.01
CAGTTTGTTC | 0.987 ± 0.022
CAGTTTTATT | 0.992 ± 0.022
CATAAACGCG | 1.003 ± 0.0088
CATAAAGGAG | 1.01 ± 0.016
CATAACGCCT | 1.09 ± 0.027
CATAACGGTT | 0.98 ± 0.025
CATAACTTGG | 1.011 ± 0.002
CATAAGATGC | 1.03 ± 0.027
CATAAGGGTT | 1.13 ± 0.17
CATAAGGTCG | 1.03 ± 0.083
CATAATAACC | 1.03 ± 0.018
CATAATATTG | 0.991 ± 0.011

Sequence | switch fluorescence ratio
CATACAGGGG | 1.44 ± 0.067
CATACCCAAA | 1.05 ± 0.039
CATACGGGGG | 1.03 ± 0.025
CATACGTGCG | 1 ± 0.042
CATAGGGGCC | 0.9643 ± 0.0074
CATAGGTAAG | 0.9837 ± 0.0022
CATAGTTTGC | 0.9979 ± 0.0053
CATATAATTG | 0.976 ± 0.014
CATATAGAGG | 1.01 ± 0.054
CATATATTTT | 1.04 ± 0.058
CATATCGGAA | 1.187 ± 0.0077
CATATGGTAT | 1.02 ± 0.037
CATATTATGA | 0.987 ± 0.012
CATATTCTTT | 0.979 ± 0.016
CATATTGCTT | 0.993 ± 0.028
CATATTGGTC | 1 ± 0.062
CATATTTGGG | 0.981 ± 0.081
CATATTTTGT | 1.0216 ± 0.00042
CATATTTTTG | 0.996 ± 0.013
CATCAATGTG | 0.997 ± 0.052
CATCAGGATG | 1.01 ± 0.031
CATCAGGGTT | 0.974 ± 0.013
CATCAGTGGT | 1.03 ± 0.032

Sequence | switch fluorescence ratio
CATCATGGTC | 1.03 ± 0.054
CATCATTGGG | 0.993 ± 0.016
CATCCGGGGT | 2.04 ± 0.57
CATCCTGAAT | 1.08 ± 0.027
CATCGGCTCA | 1.12 ± 0.067
CATCGGGGTA | 1.02 ± 0.029
CATCGTGGGT | 0.975 ± 0.027
CATCTCATAT | 1.02 ± 0.028
CATCTGTG | 1.03 ± 0.016
CATCTTATGA | 0.99 ± 0.0043
CATCTTGAAT | 1 ± 0.046
CATGATGAGA | 0.969 ± 0.035
CATGATTATT | 0.986 ± 0.024
CATGCACACT | 1.11 ± 0.053
CATGCACCGG | 0.986 ± 0.05
CATGCAGATA | 1.006 ± 0.0094
CATGCCAGAT | 0.994 ± 0.028
CATGCGTTTT | 1.04 ± 0.043
CATGCTACGG | 1.01 ± 0.016
CATGCTAGAG | 0.99 ± 0.025
CATGCTGGGG | 0.9941 ± 0.0022
CATGGAAGGC | 0.957 ± 0.03
CATGGCCTTA | 0.972 ± 0.0097

Sequence | switch fluorescence ratio
CATGGGAGGG | 1.01 ± 0.029
CATGGGAGGT | 0.9711 ± 0.0067
CATGGGCGGG | 0.983 ± 0.022
CATGGGGAGT | 0.969 ± 0.024
CATGGGGGGG | 0.982 ± 0.043
CATGGGGGTG | 1 ± 0.021
CATGGGTTAT | 0.981 ± 0.05
CATGTAGGCA | 0.99 ± 0.046
CATGTCGACT | 0.988 ± 0.046
CATGTCGGCA | 1 ± 0.019
CATGTGACCA | 0.988 ± 0.038
CATGTGATGG | 1.06 ± 0.044
CATGTGATTT | 0.992 ± 0.023
CATGTGGGGA | 1.021 ± 0.004
CATGTGGGTA | 0.981 ± 0.053
CATGTGGTGG | 0.998 ± 0.039
CATGTGTTTT | 0.9744 ± 0.0041
CATGTTGGAT | 0.964 ± 0.029
CATGTTTCTA | 0.995 ± 0.02
CATTAAAATT | 0.994 ± 0.028
CATTAACAGG | 1.03 ± 0.021
CATTAAGGCT | 1.01 ± 0.071
CATTAGATGC | 1.06 ± 0.056

Sequence | switch fluorescence ratio
CATTAGCGAT | 1.5 ± 0.091
CATTAGGGGG | 1.04 ± 0.037
CATTAGTCTC | 1.02 ± 0.053
CATTAGTTGG | 1.006 ± 0.0052
CATTATCTGG | 1.01 ± 0.072
CATTATGCGG | 1 ± 0.025
CATTATTGGC | 1.06 ± 0.025
CATTCATGAT | 0.9858 ± 0.0086
CATTCGCTGA | 1.92 ± 0.19
CATTCTTTTT | 1.02 ± 0.049
CATTGACATA | 1.07 ± 0.034
CATTGAGTTG | 0.973 ± 0.018
CATTGCAGAT | 0.981 ± 0.037
CATTGCAGTT | 1.01 ± 0.026
CATTGCCCGT | 0.989 ± 0.017
CATTGCGATT | 1.13 ± 0.14
CATTGGGAGA | 0.984 ± 0.011
CATTGGGGCG | 0.926 ± 0.019
CATTGGTCGC | 0.997 ± 0.035
CATTGGTGGC | 0.992 ± 0.1
CATTGGTGGG | 0.977 ± 0.028
CATTGTTAGG | 1.01 ± 0.004
CATTTAATTC | 1.04 ± 0.014

Sequence | switch fluorescence ratio
CATTTAGGGA | 1.01 ± 0.029
CATTTATAAA | 0.992 ± 0.011
CATTTATTAG | 0.964 ± 0.0063
CATTTCAGGA | 1.004 ± 0.0027
CATTTCTAGA | 0.9709 ± 0.0055
CATTTGGGTC | 1.013 ± 0.0038
CATTTGGGTT | 1.03 ± 0.059
CATTTGTATT | 1.01 ± 0.038
CATTTGTTAG | 0.9657 ± 0.0071
CATTTTACTT | 1.02 ± 0.035
CATTTTAGGG | 0.988 ± 0.027
CATTTTGCGC | 1.04 ± 0.042
CATTTTGGTT | 0.995 ± 0.036
CATTTTTACG | 1.01 ± 0.026
CCAAAAGTGG | 1.04 ± 0.044
CCAAAATTG | 1.02 ± 0.018
CCAAATCGGA | 1 ± 0.022
CCAAATGCGA | 1.97 ± 0.068
CCAAATGTCG | 0.982 ± 0.025
